Measurements as given in patent US20160075790A1 (Bristol-Myers Squibb, published 2016).
pKd: −log10 of the molar value.

How the values were obtained:
[1] = biological target: cynomolgus monkey CD40L on cells (cynomolgus monkey) (UniProt G7Q1T4); assay: in vivo receptor occupancy on monkey PBMC, 20 mg/kg IV, through 1032 h
[2] = biological target: cynomolgus monkey CD40L on cells (cynomolgus monkey) (UniProt G7Q1T4); assay: in vivo receptor occupancy on monkey PBMC, 20 mg/kg IV, 48 h post-dose
[3] = biological target: human CD32a (FcγRIIa), soluble (human) (UniProt P12318); assay: SPR; biphasic binding, steady state fit to the dominant binding event; pH 7.1
[4] = biological target: human CD64 (FcγRI) (human) (UniProt P12314); assay: SPR; captured on biot-IZ-hCD40L surface, soluble FcR as analyte; pH 7.1
[5] = biological target: human CD16a (FcγRIIIa) (human) (UniProt P08637); assay: as above
human FcRn (human) = human FcRn (human) (UniProt P55899); assay: SPR; captured on biot-IZ-hCD40L surface, soluble FcR as analyte; pH 6
[6] = biological target: T1, human CD40L, membrane-bound on cells (human, UniProt P29965 1-261); assay: cell-based or functional assay
T1 sequence: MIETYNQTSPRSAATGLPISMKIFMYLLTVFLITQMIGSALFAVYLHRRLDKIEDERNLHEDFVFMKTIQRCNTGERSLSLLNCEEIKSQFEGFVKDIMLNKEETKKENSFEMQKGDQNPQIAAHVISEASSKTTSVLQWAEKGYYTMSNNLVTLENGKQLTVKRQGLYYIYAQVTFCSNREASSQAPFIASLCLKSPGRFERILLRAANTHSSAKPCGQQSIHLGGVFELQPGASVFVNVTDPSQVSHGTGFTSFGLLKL

[7] = biological target: human isoleucine zipper-CD40L (IZ-hCD40L) (human) (UniProt P29965); assay: cell-based or functional assay

5c8-IgG1 (antibody), sequence (heavy): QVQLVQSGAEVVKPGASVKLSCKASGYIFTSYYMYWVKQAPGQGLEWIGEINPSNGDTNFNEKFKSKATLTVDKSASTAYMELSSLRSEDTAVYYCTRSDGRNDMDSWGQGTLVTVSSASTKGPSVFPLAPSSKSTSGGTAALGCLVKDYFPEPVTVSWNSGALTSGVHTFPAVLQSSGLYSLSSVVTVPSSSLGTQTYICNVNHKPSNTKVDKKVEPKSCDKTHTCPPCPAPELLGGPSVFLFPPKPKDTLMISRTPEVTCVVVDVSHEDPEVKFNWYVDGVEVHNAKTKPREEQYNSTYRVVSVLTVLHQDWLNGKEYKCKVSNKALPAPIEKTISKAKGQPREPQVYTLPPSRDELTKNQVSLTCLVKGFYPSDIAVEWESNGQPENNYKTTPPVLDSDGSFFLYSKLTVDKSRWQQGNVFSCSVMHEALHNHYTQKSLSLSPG
5c8-IgG1 (antibody), sequence (light): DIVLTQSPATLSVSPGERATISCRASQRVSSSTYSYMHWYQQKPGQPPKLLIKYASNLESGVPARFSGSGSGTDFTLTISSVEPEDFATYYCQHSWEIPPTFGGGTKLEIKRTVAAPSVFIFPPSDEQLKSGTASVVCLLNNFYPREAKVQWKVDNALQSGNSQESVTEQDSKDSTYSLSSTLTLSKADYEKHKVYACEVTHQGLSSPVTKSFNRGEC
human CD16a (FcγRIIIa) (human), sequence (P08637 17-208 limits assumed): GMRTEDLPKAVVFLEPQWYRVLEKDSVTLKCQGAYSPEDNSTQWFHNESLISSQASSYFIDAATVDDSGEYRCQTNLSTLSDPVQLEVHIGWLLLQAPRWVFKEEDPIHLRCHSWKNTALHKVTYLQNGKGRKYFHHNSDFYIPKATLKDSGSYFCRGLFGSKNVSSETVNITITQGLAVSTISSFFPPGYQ
human CD32a (FcγRIIa), soluble (human), sequence (P12318 36-218 limits assumed): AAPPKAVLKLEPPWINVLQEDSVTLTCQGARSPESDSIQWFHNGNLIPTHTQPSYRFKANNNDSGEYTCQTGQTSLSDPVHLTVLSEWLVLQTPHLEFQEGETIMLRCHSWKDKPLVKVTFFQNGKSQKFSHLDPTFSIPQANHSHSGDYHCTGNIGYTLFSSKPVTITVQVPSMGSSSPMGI
human CD64 (FcγRI) (human), sequence (P12314 16-288 limits assumed): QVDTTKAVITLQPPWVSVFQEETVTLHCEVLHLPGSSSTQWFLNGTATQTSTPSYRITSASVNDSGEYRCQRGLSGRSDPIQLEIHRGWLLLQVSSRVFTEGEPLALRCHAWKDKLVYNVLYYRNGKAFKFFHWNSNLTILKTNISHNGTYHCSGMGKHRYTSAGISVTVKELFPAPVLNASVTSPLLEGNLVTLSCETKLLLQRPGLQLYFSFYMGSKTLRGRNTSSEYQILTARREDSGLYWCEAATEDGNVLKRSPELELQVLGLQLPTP
human FcRn (human), sequence (P55899 24-297 limits assumed, chain 1 of 2): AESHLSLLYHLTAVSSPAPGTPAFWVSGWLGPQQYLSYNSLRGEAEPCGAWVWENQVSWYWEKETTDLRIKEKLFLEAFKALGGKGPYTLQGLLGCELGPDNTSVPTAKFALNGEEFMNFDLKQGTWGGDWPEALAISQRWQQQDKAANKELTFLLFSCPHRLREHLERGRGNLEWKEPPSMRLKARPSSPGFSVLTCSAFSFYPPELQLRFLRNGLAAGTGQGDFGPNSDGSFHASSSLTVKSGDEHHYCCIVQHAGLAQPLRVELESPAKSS
human FcRn (human), sequence (P61769 21-119 limits assumed, chain 2 of 2, further chain): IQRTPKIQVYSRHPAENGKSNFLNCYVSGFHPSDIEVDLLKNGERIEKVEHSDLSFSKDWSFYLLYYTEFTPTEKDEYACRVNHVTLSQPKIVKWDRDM

Substance: 5c8-IgG1 (antibody)
- receptor occupancy [1]: > 97%
- mean peak receptor occupancy [2]: 100%
- pKd [3]: 7.00
- pKd [4]: > 10.30
- pKd [5]: 6.62
- pKd (human FcRn (human)): 6.23

Substance: 5c8 mAb (antibody)
- CHO-CD40L B cell Assay EC50 [6]: 2 nM
- CHO-CD40L DC Assay IL-12 EC50 [6]: 2 nM
- T-B MLR EC50 [6]: 0.54 nM
- T-B MLR IL-6 EC50 [6]: 0.23 nM
- Trimer B cell Assay EC50 [7]: 8 nM
